Article PMC6423285

Assays:
[1] = target: NBS1 (UniProt O60934); experiment: peptide-bead pull-down from cell lysate; conditions: reference: non-phospho peptide …; sites S462
[2] = target: NBS1 FHA+BRCT1/2 (UniProt O60934); experiment: peptide-bead pull-down of purified GST fusion; conditions: reference: non-phospho peptide …; sites S462

- binding against the reference [1]: stronger
- binding against the reference [2]: stronger
Substance: UFL1 (from UniProt O94874) pS462 peptide
